Results on three molecules are retold here after paper PMC5922973, “Topoisomerase VI senses and exploits both DNA crossings and bends to facilitate strand passage” (eLife, 2018).

For series [1], the target named is T1, topo VI KGRR-EEE (Methanosarcina mazei, UniProt Q8PUB7;Q8PUB8 1-369;1-621, K186E;R188E;R189E).
T1 sequence 1: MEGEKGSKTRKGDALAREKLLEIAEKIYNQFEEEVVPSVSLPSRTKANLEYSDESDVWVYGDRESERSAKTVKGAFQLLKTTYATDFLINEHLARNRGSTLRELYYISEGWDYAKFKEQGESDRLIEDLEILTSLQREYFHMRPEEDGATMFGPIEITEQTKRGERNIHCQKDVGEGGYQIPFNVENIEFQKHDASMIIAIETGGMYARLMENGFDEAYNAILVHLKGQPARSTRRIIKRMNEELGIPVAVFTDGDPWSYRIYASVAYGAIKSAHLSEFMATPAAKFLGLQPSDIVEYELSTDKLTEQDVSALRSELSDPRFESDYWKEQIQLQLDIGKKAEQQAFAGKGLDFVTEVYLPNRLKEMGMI
T1 sequence 2: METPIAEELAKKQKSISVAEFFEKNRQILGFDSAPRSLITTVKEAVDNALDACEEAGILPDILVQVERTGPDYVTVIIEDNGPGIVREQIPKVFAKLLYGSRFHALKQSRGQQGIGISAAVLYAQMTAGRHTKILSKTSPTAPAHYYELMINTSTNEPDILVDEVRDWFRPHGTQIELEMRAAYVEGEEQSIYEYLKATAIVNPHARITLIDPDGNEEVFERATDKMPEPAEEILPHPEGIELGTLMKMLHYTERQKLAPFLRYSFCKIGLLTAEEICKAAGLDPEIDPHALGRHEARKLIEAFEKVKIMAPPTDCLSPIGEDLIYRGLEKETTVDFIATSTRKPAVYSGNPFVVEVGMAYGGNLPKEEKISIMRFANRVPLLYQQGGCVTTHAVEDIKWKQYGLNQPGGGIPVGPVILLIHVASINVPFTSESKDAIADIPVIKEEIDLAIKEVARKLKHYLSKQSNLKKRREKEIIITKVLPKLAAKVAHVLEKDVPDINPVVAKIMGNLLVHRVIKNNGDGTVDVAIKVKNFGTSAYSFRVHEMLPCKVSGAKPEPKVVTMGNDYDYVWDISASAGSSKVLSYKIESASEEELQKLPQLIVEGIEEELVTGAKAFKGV
Kind of series: fluorescence anisotropy; FA: 20 nM probe, 50 mM K-glutamate, 20 mM HEPES-KOH pH 7.5, 10 mM MgCl2, 5% glycerol, 1 mM TCEP, 0.1 mg/mL BSA; incubated on ice, read at ambient temperature; competition with 100 nM enzyme. The conditions noted are these: protein: recombinant; tags: N-terminal His6-TEV on Top6B, removed; chain copies: 2;2; label: 5'-FAM strand 1; blunt. For orientation: Polarisation of emitted light reports the rotation of a fluorescent probe.

Series [2] concerns the target T2, topo VI KGRR-AAA (Methanosarcina mazei, UniProt Q8PUB7;Q8PUB8 1-369;1-621, K186A;R188A;R189A).
T2 sequence 1: T1 sequence 1
T2 sequence 2: T1 sequence 2 with E186A, E188A, E189A
The description is as above. To be noted: protein: recombinant; tags: N-terminal His6-TEV on Top6B, removed; chain copies: 2;2; label: 5'-FAM strand 1; blunt.

Series [3] concerns the target T3, topo VI H2TH-EEE (Methanosarcina mazei, UniProt Q8PUB7;Q8PUB8 1-369;1-621, R263E;K268E;K308E).
T3 sequence 1: T1 sequence 1
T3 sequence 2: T1 sequence 2 with E186K, E188R, E189R, R263E, K268E, K308E
Kind of series: fluorescence anisotropy; Hill h 1.3; FA: 20 nM probe, 50 mM K-glutamate, 20 mM HEPES-KOH pH 7.5, 10 mM MgCl2, 5% glycerol, 1 mM TCEP, 0.1 mg/mL BSA; incubated on ice, read at ambient temperature; competition with 100 nM enzyme. To be noted: protein: recombinant; tags: N-terminal His6-TEV on Top6B, removed; chain copies: 2;2; label: 5'-FAM strand 1; blunt.

In series [4] the target is T1, topo VI KGRR-EEE. Kind of series: fluorescence anisotropy; 10 mM Mg2+; ambiguous, poorly defined dFAmax; FA: 20 nM probe, 50 mM K-glutamate, 20 mM HEPES-KOH pH 7.5, 10 mM MgCl2, 5% glycerol, 1 mM TCEP, 0.1 mg/mL BSA; incubated on ice, read at ambient temperature; competition with 100 nM enzyme. To be noted: protein: recombinant; tags: N-terminal His6-TEV on Top6B, removed; chain copies: 2;2; label: 5'-FAM on S1; four-way Holliday junction, stacked-X, two GAAA-capped arms.

Numbering of substitutions follows the chain as printed.

B1: 60 bp duplex (dsDNA)
DNA 1: CGCTTCAATAATATTGAAAAAGGAAGAGTATGAGTATTCAACATTTCCGTGTCGCCCTTC
DNA 2: GAAGGGCGACACGGAAATGTTGAATACTCATACTCTTCCTTTTTCAATATTATTGAAGCG
Regarding B1, the dissociation constant (Kd) (in general, the equilibrium constant for the complex coming apart) in series [1] is 119 ± 3 nM; in series [2], 99 ± 2 nM.

B2: 30 bp duplex (dsDNA)
DNA 1: CAAAAAGGAAGAGTATGAGTATTCAACATC
DNA 2: GATGTTGAATACTCATACTCTTCCTTTTTG
In the case of B2, in series [3], the Kd is 94 ± 5 nM.

B3: 16 x 20 bp stacked junction (structured_DNA)
DNA 1: CGAATACTCAGCTCAACCGAAAGGTTGAGCCTTCGCTCGAAAGAGCGAAGTACTCTTCCG
DNA 2: CGGAAGAGTATGAGTATTCG
In the case of B3, the Kd in series [4] was roughly 1460 nM.
